The values that follow come from patent US20210017289A1 (AbbVie / Abbott, published 2021).

One experiment deals with T1, 293s-huOX40-muCRDII+III.
T1 construct: cell-surface chimera, named on the sheet by its cell line; also called human OX40 chimera with murine CRDII and CRDIII replacing human CRDII and CRDIII
T1 receptor chain: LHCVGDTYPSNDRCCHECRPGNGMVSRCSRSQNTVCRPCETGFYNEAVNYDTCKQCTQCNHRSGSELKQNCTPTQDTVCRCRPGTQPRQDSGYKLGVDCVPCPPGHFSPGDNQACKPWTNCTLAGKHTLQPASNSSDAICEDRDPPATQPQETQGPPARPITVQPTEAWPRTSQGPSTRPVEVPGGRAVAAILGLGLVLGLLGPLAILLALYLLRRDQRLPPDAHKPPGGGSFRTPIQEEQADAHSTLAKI
The experiment is described as follows: flow cytometry on 293s transfectants, Hu3738 added at 2 µg/mL, Cy5 donkey anti-human IgG. As to the method:
(§1) After plating cells, 50 μL of Hu3738 or isotype control antibody at 2 μg/mL were added to corresponding wells in duplicate for each cell line and allowed to incubate on ice for 30 minutes. Following incubation, 200 μL of Dulbecco's Phosphate Buffered Saline (DPBS) was added into each well and plates were spun down at 1000 rpm for three minutes. Supernatants from each well were removed and 50 μL of Cy5-Donkey anti-Human IgG (Jackson ImmunoResearch) secondary antibody was added at a 1:250 dilution, which was then incubated for 30 minutes on ice in the dark. Following the incubation period, 200 μL of DPBS was added prior to spinning down the plate at 1000 rpm for three minutes. Supernatants were removed and each well was re-suspended with 100 μL of DPBS+1% Formaldehyde. Samples were analyzed on the dual laser FACSCalibur flow cytometer (Becton Dickinson).
On the technique in general: In flow cytometry, cells or beads pass a laser one at a time.

Another experiment deals with T2, 293s-huOX40-muCRDIII.
T2 construct: cell-surface chimera, named on the sheet by its cell line; also called human OX40 chimera with murine CRDIII replacing human CRDIII
T2 receptor chain: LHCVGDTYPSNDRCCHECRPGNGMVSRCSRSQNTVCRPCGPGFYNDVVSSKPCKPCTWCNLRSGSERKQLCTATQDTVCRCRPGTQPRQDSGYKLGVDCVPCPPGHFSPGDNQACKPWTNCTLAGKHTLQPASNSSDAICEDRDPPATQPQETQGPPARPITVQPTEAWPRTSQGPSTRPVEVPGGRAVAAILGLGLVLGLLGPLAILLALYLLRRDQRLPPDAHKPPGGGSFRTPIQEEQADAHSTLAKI
The experiment is described as above. On the procedure:
as §1

A further experiment has as its target T3, 293s-huOX40-muCRDI.
T3 construct: cell-surface chimera, named on the sheet by its cell line; also called human OX40 chimera with murine CRDI replacing human CRDI
T3 receptor chain: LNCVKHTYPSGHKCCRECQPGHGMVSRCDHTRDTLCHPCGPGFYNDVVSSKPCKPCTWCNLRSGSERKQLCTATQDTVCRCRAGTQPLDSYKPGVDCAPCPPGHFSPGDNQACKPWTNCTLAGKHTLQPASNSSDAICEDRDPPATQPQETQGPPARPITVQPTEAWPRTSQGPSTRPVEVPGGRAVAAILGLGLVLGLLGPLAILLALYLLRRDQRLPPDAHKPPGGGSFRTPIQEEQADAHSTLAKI
The description is as above. On the procedure: as §1

In experiment [1] the target is T4, human OX40 expressed on cells (human, UniProt P43489 29-277).
T4 sequence: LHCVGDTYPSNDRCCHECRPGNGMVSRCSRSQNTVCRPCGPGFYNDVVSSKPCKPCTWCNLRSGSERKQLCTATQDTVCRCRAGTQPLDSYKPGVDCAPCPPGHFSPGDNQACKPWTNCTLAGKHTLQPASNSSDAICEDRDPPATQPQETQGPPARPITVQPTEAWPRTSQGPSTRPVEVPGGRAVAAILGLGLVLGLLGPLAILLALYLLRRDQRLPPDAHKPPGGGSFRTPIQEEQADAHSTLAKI
As to the kind of experiment: cell-based or functional assay.

The target in experiment [2] is T5, cynomolgus OX40 on activated cynomolgus monkey CD4+ T cells (cynomolgus monkey, UniProt P43489 29-277 (human entry)).
T5 chain: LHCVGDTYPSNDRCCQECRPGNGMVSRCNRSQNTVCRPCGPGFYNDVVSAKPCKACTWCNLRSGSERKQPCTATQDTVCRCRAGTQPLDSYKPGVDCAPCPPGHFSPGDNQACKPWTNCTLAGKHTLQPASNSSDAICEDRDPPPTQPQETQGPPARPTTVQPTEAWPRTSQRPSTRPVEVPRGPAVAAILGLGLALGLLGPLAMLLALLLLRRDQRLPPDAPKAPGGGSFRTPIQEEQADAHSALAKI
As to the kind of experiment: flow cytometry on PHA and IL-2 activated cynomolgus monkey CD4+ T cells. As to the method: Cynomolgus monkey whole blood was purchased from Worldwide Primates. For isolation of PBMCs, whole blood was diluted in a 1:1 ratio with PBS without magnesium and calcium (GE Healthcare). Diluted blood (30 mL) was layered under 13 mL of 95% Ficoll-Paque Plus (GE Healthcare) prepared in PBS without magnesium and calcium (GE Healthcare) in 50-mL conical tubes. The tubes were spun at 1000 g for 25 minutes. The interphase was collected and washed twice in 1×PBS. Cells were resuspended to 2×10⁶ cells/mL in RPMI/10% FBS. Cells were incubated for […] with […] phytohemagglutinin (PHA) (Sigma) and 100 U/mL recombinant human interleukin-2 (IL-2) (Proleukin®, Prometheus) in 6-well plates. After 24 hours, cells were washed, counted and resuspended to 2×10⁶/mL. 100 μL of the cells were used per stain. Test anti-OX40 antibody was titrated in a 4-fold dilution series starting at 1 μg/mL. Cells were stained for 30 minutes and washed twice. A 1:250 dilution (4 μg/mL) of Goat anti-Human IgG Fc specific-PE (Jackson ImmunoResearch) in 100 μL PBS containing 1% BSA was added per well. Cells were stained for an additional 30 minutes and washed twice, transferred to tubes and acquired using the BD LSR Fortessa flow cytometer, and analyzed using FACSDiva analysis software version 8.0.1.

B1: Hu3738 (antibody, V domains shown)
VH: EVQLVESGGGLVQPGGSLRLSCAASGFTFSRYGMSWVRQAPGKGLELVATINSNGGRTYYPDSVKGRFTISRDNAKNSLYLQMNSLRAEDTAVYYCAREGITTAYAMDYWGQGTTVTVSS
VL: DIVMTQSPDSLAVSLGERATINCKASQSVDYDGDSYMHWYQQKPGQPPKLLIYAASILESGVPDRFSGSGSGTDFTLTISSLQAEDVAVYYCQQSNEDPRTFGGGTKVEIKR
notes: Humanized antibody; also called exemplary anti-OX40 antibody Hu3738; Hu3738 VH.1b / Hu3738 VL.1
By EC50 is commonly meant the concentration at which the effect is half-maximal. Turning to B1, the binding result with 293s-huOX40-muCRDII+III is listed as “no binding (tested: 2 µg/mL)”; with 293s-huOX40-muCRDIII, “binds”; in the experiment with 293s-huOX40-muCRDI, “binds”. Also, the “EC50 With Cross-linker (nM), NF-κB signaling” value in experiment [1] was 0.02 nM. In addition, the “EC50 Without Cross-linker (nM), NF-κB signaling” value in experiment [1] stood at 22 nM. This molecule also showed an EC50 in experiment [2] of 0.024 nM.
